# B1: clone 2.2 VH (VHH)
# VHH: QVQLVQSGAEVKKPGASVKVSCKASGYPFTSYDINWVRQATGRSLEWMGWMNPTNGNTVYAQKFQDRVTMTRNTSISTAYMELSSLRSEDTAVYFCARGRRDDWKNNYWGQGTLVTVSS
# Target: IL-17RA Fc fusion protein (human) (UniProt Q96F46)
# Experiment: BIAcore T200, IL-17RA Fc fusion captured on protein G surface, single-cycle kinetics
binder,measurement,value
B1,fold improved affinity against clone 2.1,5 fold
